{"source": "the supplement of paper PMC5998384", "key": {"[1]": {"test_system": "HeLa Kyoto", "assay": "solubility in G1/S (NP-40 vs SDS abundance) (log2 ratio); higher = more soluble", "conditions": "cell cycle stage: G1/S"}, "[2]": {"test_system": "HeLa Kyoto", "assay": "solubility change mitosis vs G1/S (difference of NP-40 vs SDS log2 ratios) (log2 ratio difference); higher = more soluble in mitosis"}}}
{"substance": "MAAAATAAEGVPSRGPPGEVIHLNVGGKRFSTSRQTLTWIPDSFFSSLLSGRISTLKDETGAIFIDRDPTVFAPILNFLRTKELDPRGVHGSSLLHEAQFYGLTPLVRRLQLREELDRSSCGNVLFNGYLPPPVFPVKRRNRHSLVGPQQLGGRPAPVRRSNTMPPNLGNAGLLGRMLDEKTPPSPSGQPEEPGMVRLVCGHHNWIAVAYTQFLVCYRLKEASGWQLVFSSPRLDWPIERLALTARVHGGALGEHDKMVAAATGSEILLWALQAEGGGSEIGVFHLGVPVEALFFVGNQLIATSHTGRIGVWNAVTKHWQVQEVQPITSYDAAGSFLLLGCNNGSIYYVDVQKFPLRMKDNDLLVSELYRDPAEDGVTALSVYLTPKTSDSGNWIEIAYGTSSGGVRVIVQHPETVGSGPQLFQTFTVHRSPVTKIMLSEKHLISVCADNNHVRTWSVTRFRGMISTQPGSTPLASFKILALESADGHGGCSAGNDIGPYGERDDQQVFIQKVVPSASQLFVRLSSTGQRVCSVRSVDGSPTTAFTVLECEGSRRLGSRPRRYLLTGQANGSLAMWDLTTAMDGLGQAPAGGLTEQELMEQLEHCELAPPAPSAPSWGCLPSPSPRISLTSLHSASSNTSLSGHRGSPSPPQAEARRRGGGSFVERCQELVRSGPDLRRPPTPAPWPSSGLGTPLTPPKMKLNETSF [SHKBP1]", "values": [{"measurement": "solubility in G1/S (log2)", "setting": "[1]", "result": -0.0414}, {"measurement": "solubility change mitosis (log2)", "setting": "[2]", "result": -0.00881}]}
{"substance": "MAGGRCGPQLTALLAAWIAAVAATAGPEEAALPPEQSRVQPMTASNWTLVMEGEWMLKFYAPWCPSCQQTDSEWEAFAKNGEILQISVGKVDVIQEPGLSGRFFVTTLPAFFHAKDGIFRRYRGPGIFEDLQNYILEKKWQSVEPLTGWKSPASLTMSGMAGLFSISGKIWHLHNYFTVTLGIPAWCSYVFFVIATLVFGLFMGLVLVVISECFYVPLPRHLSERSEQNRRSEEAHRAEQLQDAEEEKDDSNEEENKDSLVDDEEEKEDLGDEDEAEEEEEEDNLAAGVDEERSEANDQGPPGEDGVTREEVEPEEAEEGISEQPCPADTEVVEDSLRQRKSQHADKGL [TMX4]", "values": [{"measurement": "solubility in G1/S (log2)", "setting": "[1]", "result": 0.144}, {"measurement": "solubility change mitosis (log2)", "setting": "[2]", "result": -0.172}]}
{"substance": "MLLSVTSRPGISTFGYNRNNKKPYVSLAQQMAPPSPSNSTPNSSSGSNGNDQLSKTNLYIRGLQPGTTDQDLVKLCQPYGKIVSTKAILDKTTNKCKGYGFVDFDSPSAAQKAVTALKASGVQAQMAKQQEQDPTNLYISNLPLSMDEQELEGMLKPFGQVISTRILRDTSGTSRGVGFARMESTEKCEAIITHFNGKYIKTPPGVPAPSDPLLCKFADGGPKKRQNQGKFVQNGRAWPRNADMGVMALTYDPTTALQNGFYPAPYNITPNRMLAQSALSPYLSSPVSSYQRVTQTSPLQVPNPSWMHHHSYLMQPSGSVLTPGMDHPISLQPASMMGPLTQQLGHLSLSSTGTYMPTAAAMQGAYISQYTPVPSSSVSVEESSGQQNQVAVDAPSEHGVYSFQFNK [RBMS2]", "values": [{"measurement": "solubility in G1/S (log2)", "setting": "[1]", "result": 0.474}, {"measurement": "solubility change mitosis (log2)", "setting": "[2]", "result": 0.0678}]}
{"substance": "MMVESASETIRSAPSGQNGVGSLSGQADGSSGGATGTTASGTGREVTTGADSNGEMSPAELLHFQQQQALQVARQFLLQQASGLSSPGNNDSKQSASAVQVPVSVAMMSPQMLTPQQMQQILSPPQLQALLQQQQALMLQQLQEYYKKQQEQLHLQLLTQQQAGKPQPKEALGNKQLAFQQQLLQMQQLQQQHLLNLQRQGLVSLQPNQASGPLQTLPQAAVCPTDLPQLWKGEGAPGQPAEDSVKQEGLDLTGTAATATSFAAPPKVSPPLSHHTLPNGQPTVLTSRRDSSSHEETPGSHPLYGHGECKWPGCETLCEDLGQFIKHLNTEHALDDRSTAQCRVQMQVVQQLEIQLAKESERLQAMMAHLHMRPSEPKPFSQPLNPVPGSSSFSKVTVSAADSFPDGLVHPPTSAAAPVTPLRPPGLGSASLHGGGPARRRSSDKFCSPISSELAQNHEFYKNADVRPPFTYASLIRQAILETPDRQLTLNEIYNWFTRMFAYFRRNTATWKNAVRHNLSLHKCFVRVENVKGAVWTVDEREYQKRRPPKMTGSPTLVKNMISGLSYGALNASYQAALAESSFPLLNSPGMLNPGSASSLLPLSHDDVGAPVEPLPSNGSSSPPRLSPPQYSHQVQVKEEPAEAEEDRQPGPPLGAPNPSASGPPEDRDLEEELPGEELS [FOXP4]", "values": [{"measurement": "solubility in G1/S (log2)", "setting": "[1]", "result": 0.393}, {"measurement": "solubility change mitosis (log2)", "setting": "[2]", "result": -0.162}]}
{"substance": "CEP295", "values": [{"measurement": "solubility in G1/S (log2)", "setting": "[1]", "result": 0.074}, {"measurement": "solubility change mitosis (log2)", "setting": "[2]", "result": -0.138}]}
{"substance": "MASSDLEQLCSHVNEKIGNIKKTLSLRNCGQEPTLKTVLNKIGDEIIVINELLNKLELEIQYQEQTNNSLKELCESLEEDYKDIEHLKENVPSHLPQVTVTQSCVKGSDLDPEEPIKVEEPEPVKKPPKEQRSIKEMPFITCDEFNGVPSYMKSRLTYNQINDVIKEINKAVISKYKILHQPKKSMNSVTRNLYHRFIDEETKDTKGRYFIVEADIKEFTTLKADKKFHVLLNILRHCRRLSEVRGGGLTRYVIT [SKA1]", "values": [{"measurement": "solubility in G1/S (log2)", "setting": "[1]", "result": 0.713}, {"measurement": "solubility change mitosis (log2)", "setting": "[2]", "result": -0.0548}]}
{"substance": "MASRWQNMGTSVRRRSLQHQEQLEDSKELQPVVSHQETSVGALGSLCRQFQRRLPLRAVNLNLRAGPSWKRLETPEPGQQGLQAAARSAKSALGAVSQRIQESCQSGTKWLVETQVKARRRKRGAQKGSGSPTHSLSQKSTRLSGAAPAHSAADPWEKEHHRLSVRMGSHAHPLRRSRREAAFRSPYSSTEPLCSPSESDSDLEPVGAGIQHLQKLSQELDEAIMAEERKQALSDRQGFILKDVYASP [FAM64A]", "values": [{"measurement": "solubility in G1/S (log2)", "setting": "[1]", "result": 0.000622}, {"measurement": "solubility change mitosis (log2)", "setting": "[2]", "result": 0.481}]}
{"substance": "MADSAELKQMVMSLRVSELQVLLGYAGRNKHGRKHELLTKALHLLKAGCSPAVQMKIKELYRRRFPQKIMTPADLSIPNVHSSPMPATLSPSTIPQLTYDGHPASSPLLPVSLLGPKHELELPHLTSALHPVHPDIKLQKLPFYDLLDELIKPTSLASDNSQRFRETCFAFALTPQQVQQISSSMDISGTKCDFTVQVQLRFCLSETSCPQEDHFPPNLCVKVNTKPCSLPGYLPPTKNGVEPKRPSRPINITSLVRLSTTVPNTIVVSWTAEIGRNYSMAVYLVKQLSSTVLLQRLRAKGIRNPDHSRALIKEKLTADPDSEIATTSLRVSLLCPLGKMRLTIPCRALTCSHLQCFDATLYIQMNEKKPTWVCPVCDKKAPYEHLIIDGLFMEILKYCTDCDEIQFKEDGTWAPMRSKKEVQEVSASYNGVDGCLSSTLEHQVASHHQSSNKNKKVEVIDLTIDSSSDEEEEEPSAKRTCPSLSPTSPLNNKGILSLPHQASPVSRTPSLPAVDTSYINTSLIQDYRHPFHMTPMPYDLQGLDFFPFLSGDNQHYNTSLLAAAAAAVSDDQDLLHSSRFFPYTSSQMFLDQLSAGGSTSLPTTNGSSSGSNSSLVSSNSLRESHSHTVTNRSSTDTASIFGIIPDIISLD [PIAS1]", "values": [{"measurement": "solubility in G1/S (log2)", "setting": "[1]", "result": -0.461}, {"measurement": "solubility change mitosis (log2)", "setting": "[2]", "result": 0.113}]}
{"substance": "UBE2D1", "values": [{"measurement": "solubility in G1/S (log2)", "setting": "[1]", "result": 0.473}, {"measurement": "solubility change mitosis (log2)", "setting": "[2]", "result": -0.0476}]}
{"substance": "MAGLTLFVGRLPPSARSEQLEELFSQVGPVKQCFVVTEKGSKACRGFGYVTFSMLEDVQRALKEITTFEGCKINVTVAKKKLRNKTKEKGKNENSECPKKEPKAKKAKVADKKARLIIRNLSFKCSEDDLKTVFAQFGAVLEVNIPRKPDGKMRGFGFVQFKNLLEAGKALKGMNMKEIKGRTVAVDWAVAKDKYKDTQSVSAIGEEKSHESKHQESVKKKGREEEDMEEEENDDDDDDDDEEDGVFDDEDEEEENIESKVTKPVQIQKRAVKRPAPAKSSDHSEEDSDLEESDSIDDGEELAQSDTSTEEQEDKAVQVSNKKKRKLPSDVNEGKTVFIRNLSFDSEEEELGELLQQFGELKYVRIVLHPDTEHSKGCAFAQFMTQEAAQKCLLAASPENEAGGLKLDGRQLKVDLAVTRDEAAKLQTTKVKKPTGTRNLYLAREGLIRAGTKAAEGVSAADMAKRERFELLKHQKLKDQNIFVSRTRLCLHNLPKAVDDKQLRKLLLSATSGEKGVRIKECRVMRDLKGVHGNMKGQSLGYAFAEFQEHEHALKALRLINNNPEIFGPLKRPIVEFSLEDRRKLKMKELRIQRSLQKMRSKPATGEPQKGQPEPAKDQQQKAAQHHTEEQSKVPPEQKRKAGSTSWTGFQTKAEVEQVELPDGKKRRKVLALPSHRGPKIRLRDKGKVKPVHPKKPKPQINQWKQEKQQLSSEQVSRKKAKGNKTETRFNQLVEQYKQKLLGPSKGAPLAKRSKWFDS [RBM28]", "values": [{"measurement": "solubility in G1/S (log2)", "setting": "[1]", "result": -2.35}, {"measurement": "solubility change mitosis (log2)", "setting": "[2]", "result": 1.56}]}
{"substance": "MAVLGVQLVVTLLTATLMHRLAPHCSFARWLLCNGSLFRYKHPSEEELRALAGKPRPRGRKERWANGLSEEKPLSVPRDAPFQLETCPLTTVDALVLRFFLEYQWFVDFAVYSGGVYLFTEAYYYMLGPAKETNIAVFWCLLTVTFSIKMFLTVTRLYFSAEEGGERSVCLTFAFLFLLLAMLVQVVREETLELGLEPGLASMTQNLEPLLKKQGWDWALPVAKLAIRVGLAVVGSVLGAFLTFPGLRLAQTHRDALTMSEDRPMLQFLLHTSFLSPLFILWLWTKPIARDFLHQPPFGETRFSLLSDSAFDSGRLWLLVVLCLLRLAVTRPHLQAYLCLAKARVEQLRREAGRIEAREIQQRVVRVYCYVTVVSLQYLTPLILTLNCTLLLKTLGGYSWGLGPAPLLSPDPSSASAAPIGSGEDEVQQTAARIAGALGGLLTPLFLRGVLAYLIWWTAACQLLASLFGLYFHQHLAGS [TMEM161A]", "values": [{"measurement": "solubility in G1/S (log2)", "setting": "[1]", "result": -0.184}, {"measurement": "solubility change mitosis (log2)", "setting": "[2]", "result": -0.0501}]}
{"substance": "MKRVNSCVKSDEHVLEELETEGERQLKSLLQHQLDTSVSIEECMSKKESFAPGTMYKPFGKEAAGTMTLSQFQTLHEKDQETASLRELGLNETEILIWKSHVSGEKKTKLRATPEAIQNRLQDIEERISERQRILCLPQRFAKSKQLTRREMEIEKSLFQGADRHSFLKALYYQDEPQKKNKGDPMNNLESFYQEMIMKKRLEEFQLMRGEPFASHSLVSATSVGDSGTAESPSLLQDKGKQAAQGKGPSLHVANVIDFSPEQCWTGPKKLTQPIEFVPEDEIQRNRLSEEEIRKIPMFSSYNPGEPNKVLYLKNLSPRVTERDLVSLFARFQEKKGPPIQFRMMTGRMRGQAFITFPNKEIAWQALHLVNGYKLHGKILVIEFGKNKKQRSNLQATSLISCATGSTTEISGS [RBM41]", "values": [{"measurement": "solubility in G1/S (log2)", "setting": "[1]", "result": -0.192}, {"measurement": "solubility change mitosis (log2)", "setting": "[2]", "result": -0.0432}]}
{"substance": "MAEEVSTLMKATVLMRQPGRVQEIVGALRKGGGDRLQVISDFDMTLSRFAYNGKRCPSSYNILDNSKIISEECRKELTALLHHYYPIEIDPHRTVKEKLPHMVEWWTKAHNLLCQQKIQKFQIAQVVRESNAMLREGYKTFFNTLYHNNIPLFIFSAGIGDILEEIIRQMKVFHPNIHIVSNYMDFNEDGFLQGFKGQLIHTYNKNSSACENSGYFQQLEGKTNVILLGDSIGDLTMADGVPGVQNILKIGFLNDKVEERRERYMDSYDIVLEKDETLDVVNGLLQHILCQGVQLEMQGP [NT5C3B]", "values": [{"measurement": "solubility in G1/S (log2)", "setting": "[1]", "result": 0.00588}, {"measurement": "solubility change mitosis (log2)", "setting": "[2]", "result": -0.136}]}
